Reference: article PMC10907589, “CD8^+ T cell priming that is required for curative intratumorally anchored anti-4-1BB immunotherapy is constrained by Tregs” (Nature Communications, 2024)

T1: murine 4-1BB (murine, UniProt P20334 24-256)
T1 chain: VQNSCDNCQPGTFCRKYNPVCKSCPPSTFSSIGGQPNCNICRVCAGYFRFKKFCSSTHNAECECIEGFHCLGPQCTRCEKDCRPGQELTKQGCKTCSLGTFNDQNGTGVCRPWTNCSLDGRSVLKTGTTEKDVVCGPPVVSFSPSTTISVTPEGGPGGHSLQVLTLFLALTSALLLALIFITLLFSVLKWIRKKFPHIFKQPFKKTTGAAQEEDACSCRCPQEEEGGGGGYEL


How the values were obtained:
[1] = biological target: T1, murine 4-1BB; assay: FACS
[2] = biological target: rat collagen I (rat, UniProt P02454 152-1207; P02466 86-1125); assay: ELISA
[3] = biological target: T2, murine 4-1BB (Mus musculus, UniProt P20334); assay: flow cytometry on cells; FreeStyle 293-F cells transiently transfected with murine 4-1BB, titrated with antibody for 3 h at 4 °C; detected with ɑmIgG1-APC; settings: one partner purified
T2 construct: 4-1BB (CD137, TNFRSF9), murine; gene from OriGene cloned into pIRES2 (GFP downstream of an IRES site, not fused); also called CD137; TNFRSF9; source: FreeStyle 293-F, transiently transfected (pIRES2 vector), on cells

Chain of rat collagen I (P02454 152-1207, chain 1 of 2): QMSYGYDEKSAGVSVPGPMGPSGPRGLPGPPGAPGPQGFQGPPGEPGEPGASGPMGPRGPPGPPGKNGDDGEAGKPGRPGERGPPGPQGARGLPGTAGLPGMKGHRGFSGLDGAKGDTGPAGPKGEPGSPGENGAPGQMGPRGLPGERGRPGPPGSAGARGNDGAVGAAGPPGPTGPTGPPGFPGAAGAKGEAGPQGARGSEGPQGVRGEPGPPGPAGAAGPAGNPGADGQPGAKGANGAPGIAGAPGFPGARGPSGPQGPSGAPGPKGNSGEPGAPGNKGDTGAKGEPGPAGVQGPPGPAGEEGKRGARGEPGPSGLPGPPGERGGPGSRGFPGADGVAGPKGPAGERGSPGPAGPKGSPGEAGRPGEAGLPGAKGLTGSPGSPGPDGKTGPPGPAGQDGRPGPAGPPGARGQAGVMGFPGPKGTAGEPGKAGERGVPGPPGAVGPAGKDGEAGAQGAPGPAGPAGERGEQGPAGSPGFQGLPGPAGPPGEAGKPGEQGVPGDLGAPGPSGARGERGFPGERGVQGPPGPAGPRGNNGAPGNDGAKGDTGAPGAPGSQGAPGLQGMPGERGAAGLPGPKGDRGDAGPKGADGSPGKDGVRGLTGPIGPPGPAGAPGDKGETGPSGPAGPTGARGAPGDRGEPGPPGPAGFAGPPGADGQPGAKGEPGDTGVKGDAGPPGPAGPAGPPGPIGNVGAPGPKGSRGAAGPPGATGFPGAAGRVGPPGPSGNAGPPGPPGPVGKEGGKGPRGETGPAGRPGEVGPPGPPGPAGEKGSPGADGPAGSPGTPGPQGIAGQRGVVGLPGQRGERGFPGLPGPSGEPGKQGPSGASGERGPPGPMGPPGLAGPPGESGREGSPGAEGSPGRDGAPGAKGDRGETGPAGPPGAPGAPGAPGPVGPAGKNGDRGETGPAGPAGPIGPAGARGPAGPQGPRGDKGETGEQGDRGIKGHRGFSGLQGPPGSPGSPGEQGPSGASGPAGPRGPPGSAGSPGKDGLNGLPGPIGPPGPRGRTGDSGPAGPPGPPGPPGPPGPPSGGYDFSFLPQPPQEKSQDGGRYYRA
Chain of rat collagen I (P02466 86-1125, chain 2 of 2): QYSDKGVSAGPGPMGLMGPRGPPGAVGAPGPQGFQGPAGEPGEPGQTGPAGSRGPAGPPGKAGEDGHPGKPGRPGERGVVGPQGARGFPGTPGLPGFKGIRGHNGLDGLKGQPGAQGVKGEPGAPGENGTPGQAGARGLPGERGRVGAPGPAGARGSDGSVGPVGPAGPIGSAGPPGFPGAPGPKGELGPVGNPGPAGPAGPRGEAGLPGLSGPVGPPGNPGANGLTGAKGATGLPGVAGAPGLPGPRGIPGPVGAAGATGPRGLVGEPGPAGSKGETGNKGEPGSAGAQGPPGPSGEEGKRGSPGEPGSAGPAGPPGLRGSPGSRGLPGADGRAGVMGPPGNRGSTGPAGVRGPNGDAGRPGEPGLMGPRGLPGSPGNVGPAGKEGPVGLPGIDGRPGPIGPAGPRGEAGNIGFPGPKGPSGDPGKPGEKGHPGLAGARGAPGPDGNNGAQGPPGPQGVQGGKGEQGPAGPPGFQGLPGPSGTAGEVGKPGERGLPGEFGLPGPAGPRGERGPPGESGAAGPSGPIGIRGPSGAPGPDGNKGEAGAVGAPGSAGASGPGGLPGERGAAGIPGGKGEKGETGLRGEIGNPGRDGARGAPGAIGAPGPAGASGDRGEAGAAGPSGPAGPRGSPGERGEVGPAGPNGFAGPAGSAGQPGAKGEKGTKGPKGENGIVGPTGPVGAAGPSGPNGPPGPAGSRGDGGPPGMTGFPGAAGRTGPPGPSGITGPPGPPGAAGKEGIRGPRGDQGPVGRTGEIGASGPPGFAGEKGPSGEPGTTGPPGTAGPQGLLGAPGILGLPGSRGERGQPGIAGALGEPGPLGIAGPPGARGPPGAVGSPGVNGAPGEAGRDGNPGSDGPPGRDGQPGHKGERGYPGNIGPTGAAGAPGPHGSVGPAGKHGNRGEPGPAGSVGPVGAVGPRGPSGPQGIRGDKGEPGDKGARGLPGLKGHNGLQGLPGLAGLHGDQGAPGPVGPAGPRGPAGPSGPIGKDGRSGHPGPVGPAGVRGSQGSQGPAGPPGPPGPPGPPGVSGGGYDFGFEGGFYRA

| Binder | Kd [1] | Kd [2] | binding result [3] |
| --- | --- | --- | --- |
| ɑ4-1BB-LAIR (ɑ4-1BB antibody clone LOB12.3 fused to the ectodomain of murine LAIR1) (antibody, V domains shown, heavy chain variable region of ɑ4-1BB clone LOB12.3; murine IgG1 heavy chain constant region; flexible (G4S)3 linker, written out from the printed formula; Leukocyte Associated Immunoglobulin Like Receptor 1 (LAIR1), murine, ectodomain; light chain variable region of ɑ4-1BB clone LOB12.3; murine kappa light chain constant region; Chimeric murine IgG1/kappa antibody; LAIR1 is fused to the …) VH: DVQLVESGGGLVQPGRSLKLSCAASGFIFSYFDMAWVRQAPTKGLEWVASISPDGSIPYYRDSVKGRFTVSRENAKSSLYLQMDSLRSEDTATYYCARRSYGGYSEIDYWGQGVMVTVSS VL: DIQMTQSPASLSASLEEIVTITCQASQDIGNWLAWYHQKPGKSPQLLIYGSTSLADGVPSRFSGSSSGSQYSLKISRLQVEDIGIYYCLQAYGAPWTFGGGTKLELK | 5.08 nM | 25 nM | binds |
| ɑ4-1BB antibody (clone LOB12.3), murine IgG1 chimera (antibody, V domains shown, heavy chain variable region of ɑ4-1BB clone LOB12.3, as in the heavy chain of m1; murine IgG1 heavy chain constant region; light chain variable region of ɑ4-1BB clone LOB12.3, as the light chain of m1; murine kappa light chain constant region; Chimeric murine IgG1/kappa antibody; light and heavy chain encoded in one cassette with a T2A peptide between them; also called α4-1BB; a4-1BB; source: …) VH: DVQLVESGGGLVQPGRSLKLSCAASGFIFSYFDMAWVRQAPTKGLEWVASISPDGSIPYYRDSVKGRFTVSRENAKSSLYLQMDSLRSEDTATYYCARRSYGGYSEIDYWGQGVMVTVSS VL: DIQMTQSPASLSASLEEIVTITCQASQDIGNWLAWYHQKPGKSPQLLIYGSTSLADGVPSRFSGSSSGSQYSLKISRLQVEDIGIYYCLQAYGAPWTFGGGTKLELK | 4.12 nM |  | binds |
